Entries after “also recorded” stand apart in the source; their conditions may differ.
Experiments:
[1] = Stability in human serum (denaturing PAGE, densitometry); format: in vitro ADME; conditions: 2'-fluoropyrimidine AsiC
Procedure: Aliquots were removed at regular intervals and resuspended in gel loading buffer and stored at −80° C. before electrophoresis on denaturing PAGE gels. The average intensity (+S.E.M.) of bands from 2 independent experiments quantified by densitometry after staining is shown.
EpCAM-AsiC targeting GFP synthesized using 2′-fluoro-pyrimidines, chemically-stabilized 21-mer cholesterol-conjugated GFP-siRNAs (chol-siRNA), and unmodified 21-mer GFP-siRNA, each in 100 ul PBS, which were added to 100 μl of human or mouse serum. At regular intervals, 20 μL was removed, and resuspended in gel loading buffer and frozen at −80° C. before being electrophoresed on a denaturing PAGE gel. FIG. 30A depicts representative PAGE gels and FIG. 30B depicts graphs of the average intensity (+S.E.M.) of bands from two independent experiments analyzed by densitometry. Both the stabilized cholesterol-conjugated siRNA and the EpCAM-AsiC are stable over the 36 h of the experiment.

[2] = Serum stability, serum species not stated; format: in vitro ADME; conditions: 2'-fluoropyrimidine AsiC
[3] = test system: MB468-luc tumors; test: Tumor inhibition, EpCAM+ MB468-luc xenograft; format: in vivo, nude mice; conditions: for growth of EpCAM+ MB468 tumors: 5 mg/kg sc every 3 d (72 h) for 2 wks
Procedure: For tumor inhibition studies, MB468-luc (5×10^6) and MB231-luc-mCherry (5×10^5) cells trypsinized with Tryple Express (Invitrogen), resuspended in a 1:1 WIT-Matrigel solution and injected subcutaneously in the flank of 8-week old female Nu/J mice (Stock #002019, Jackson Laboratories). Tumors size was analyzed daily using the IVIS Spectra, after 5 days tumors were clearly visible. […] Mice were treated every 72 h for 14 days.

[4] = test system: co-cultures of GFP− TNBC cells and GFP+ BPE cells; test: Co-culture of tumor cells with GFP+ BPE cells, relative survival by flow cytometry; format: cell-based, human
Procedure: To determine whether EpCAM-AsiCs specifically target EpCAM+ cells when mixed with EpCAM^dim non-transformed epithelial cells, we incubated co-cultures of GFP− TNBC cells and GFP+ BPE cells with PLK1 EpCAM-AsiCs or medium and used GFP fluorescence to measure their relative survival by flow cytometry 3 days later (FIG. 2D, 2E). […] Thus PLK1 EpCAM-AsiCs are selectively cytotoxic for EpCAM+ tumor cells when mixed with normal cells.
To understand whether EpCAM-AsiC can specifically target basal A and luminal breast cancer cells and inhibit proliferation we designed an EpCAM-AsiC targeting PLK1. PLK1 is a known trigger for […] transition. The effect of EpCAM-AsiC targeting PLK1 on cell proliferation was tested on 10 breast cancer cells representative of basal A, B and luminal cell lines. […] A correlation was seen between EpCAM expression levels and cell viability (FIG. 27B). To understand if EpCAM-AsiC will specifically target EpCAM+ cells in a mix cell population HCC1937 (EpCAM+GFP−) cell were co-cultured with BPE (EpCAM-GFP+) cells and treated with EpCAM-AsiC targeting PLK1 or untreated. […] The co-culture was repeated with other basal A cell lines (MB468 and HCC1143) similar reults were obtained. When BPE cells were grown in a co-culture with basal B cell (MB231) the ratio between BPE and MB231 cells stayed the same regardless of the EpCAM-AsiC treatment (66% BPE and 33% MB231 in untreated co-culture and 61% BPE and 38% MB231 following EpCAM-AsiC treatment) (FIG. 27C, 27D).

[5] = test system: MCF10CA1a (CA1a) tumor; test: MCF10CA1a tumor growth, AsiC injected sc near the tumor; format: in vivo, mice; conditions: luminescent photon flux, N=4
Procedure: The top panel depicts the experimental scheme. In this experiment the AsiCs were injected sc in the flank near the tumor, but not into the tumor. The bottom panel depicts a graph of Log2 total luminescent photon flux of the tumors (N=4); *, P<0.05 by Student's t-test.

[6] = test system: basal-B TNBC cells (MB436, MB231); test: Tumor initiation by ex vivo treated EpCAM− basal-B cells in nude mice; conditions: cells treated ex vivo overnight, then implanted; listed as PLK1 EpCAM-AsiCs
Text: EpCAM was chosen for targeting in part because EpCAM marks T-ICs and metastasis-initiating cells (M-IC).^20,22,26,27,31 To investigate whether EpCAM-AsiCs inhibit T-ICs, we compared colony and mammosphere formation (T-IC functional surrogate assays) after mock treatment, treatment with paclitaxel or with EpCAM-AsiCs against eGFP or PLK1. […] T-IC inhibition was specific, since eGFP AsiCs had no effect. […] To evaluate the effect of EpCAM-AsiCs on tumor initiation, EpCAM+MB468 cells stably expressing luciferase were treated overnight with medium or PLK1 or eGFP EpCAM-AsiCs and equal numbers of viable cells were then implanted sc in nude mice. […] Thus PLK1 EpCAM-AsiCs inhibit in vitro T-IC assays and tumor initiation selectively for EpCAM+ breast cancers.
EpCAM-AsiCs inhibit T-ICs of EpCAM+ tumors. EpCAM was chosen for targeting partly because EpCAM marks T-ICs and metastasis-initiating cells (M-IC). To investigate whether EpCAM-AsiCs inhibit T-ICs, we compared colony and mammosphere formation (T-IC functional surrogates) after mock treatment, treatment with paclitaxel or with EpCAM-AsiCs against eGFP or PLK1. […] To evaluate EpCAM-AsiC's effect on tumor initiation, viable luc+ EpCAM+ MB468 and EpCAM− MB231 cells, treated overnight with medium or PLK1 or GFP EpCAM-AsiCs, were implanted sc in nude mice. […] Thus EpCAM-AsiCs inhibit tumor initiation in EpCAM+ breast cancers.

B1: EpCAM-AsiC: EpCAM aptamer-siRNA chimera, siRNA cargo not specified at the place; 2'-fluoropyrimidines, 3'-dTdT (nucleic acid)
sense: GCGACUGGUUACCCGGUCGUUUUGAAGAAGAUCACCCUCCUUATT
antisense: UAAGGAGGGUGAUCUUCUUCATT
modifications: DNA at T, 2'-fluoro at CU, RNA at AG, backbone not given here; further chemistry not fully specified
notes: EpCAM aptamer-siRNA chimera, siRNA cargo not specified at the place; 2'-fluoropyrimidines, 3'-dTdT
T1/2 in human serum [1]: > 36 h
serum T1/2 [2]: > 3 days
injections until complete tumor regression ([3]; very aggressive TNBC xenograft model): 3 injections
decrease of the proportion of surviving tumor cells ([4]; BPE mixed with epithelial TNBC lines, after 3 d): 7 fold

B2: PLK1 EpCAM-AsiC: EpCAM aptamer linked by U-U-U to PLK1 siRNA sense strand (SEQ ID NO: 1), annealed to antisense strand (SEQ ID NO: 2) (nucleic acid)
sense: GCGACUGGUUACCCGGUCGUUUUGAAGAAGAUCACCCUCCUUATT
antisense: UAAGGAGGGUGAUCUUCUUCATT
modifications: DNA at T, 2'-fluoro at CU, RNA at AG, backbone not given here; EpCAM aptamer fused to sense strand
MCF10CA1a tumor growth [5]: suppresses MCF10CA1a (CA1a) tumor growth
time at which tumors completely disappeared in many mice ([3]; 5 mg/Kg every 72 h): 14 days
time of first tumor shrinkage ([3]; 5 mg/Kg every 72 h): 6 days
growth of EpCAM+ MB468 tumors [3]: regress only after treatment with PLK1 EpCAM-AsiC
growth of EpCAM+ MB468 tumors ([3]; listed as PLK1-targeting AsiCs): rapidly completely regressed
growth of EpCAM+ MB468 tumors ([3]; listed as PLK1 EpCAM-AsiCs): caused complete tumor regression of EpCAM+ TNBC xenografts
proportion of surviving EpCAM+ basal-A tumor cells ([4]; 3 days): greatly reduced the proportion of surviving EpCAM+ basal-A tumor cells
survival of an EpCAM− basal-B cell line in co-culture ([4]; 3 days): had no effect on survival of an EpCAM− basal-B cell line
share of EpCAM− (BPE) cells in co-culture after treatment ([4]; HCC1937 + BPE, untreated 41% BPE): 83%
share of EpCAM+ (HCC1937) cells in co-culture after treatment ([4]; HCC1937 + BPE, untreated 59% HCC1937): 17%
share of MB231 cells in co-culture after treatment ([4]; MB231 + BPE, untreated 33% MB231): 38%
share of BPE cells in co-culture after treatment ([4]; MB231 + BPE, untreated 66% BPE): 61%
tumor initiation, EpCAM− basal-B cells [6]: had no effect on basal-B TNBC tumor initiation; also recorded: only in EpCAM+ tumors

Source: patent publication US11180762B2, “Methods and compositions for the treatment of cancer” (CHILDREN'S MEDICAL CENTER CORPORATION, priority 2014, dated 2021)
